Laboratory results published in article PMC4470041.

Molecular target: CCR5 expressed in HEK 293T cells (HEK-CCR5 cells) (UniProt P51681)
Test: radioligand binding

Chain of UniProt P51681 (P51681 whole entry): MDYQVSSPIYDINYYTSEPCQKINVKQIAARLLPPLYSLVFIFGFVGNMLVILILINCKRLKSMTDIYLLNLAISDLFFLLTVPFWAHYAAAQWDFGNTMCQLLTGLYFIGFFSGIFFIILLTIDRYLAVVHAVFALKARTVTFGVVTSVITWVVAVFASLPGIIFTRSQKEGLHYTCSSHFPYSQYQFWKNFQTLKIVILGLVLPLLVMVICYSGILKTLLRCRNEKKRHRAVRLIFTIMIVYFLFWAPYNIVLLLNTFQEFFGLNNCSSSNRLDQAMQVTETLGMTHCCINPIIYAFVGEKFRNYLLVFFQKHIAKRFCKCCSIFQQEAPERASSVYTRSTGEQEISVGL

gp120 from the R5 HIV-1 primary strain Bx08 (natural protein)
Ki: 6.3 nM
